Drawing on article PMC7679444, this text covers percent of parent for 122 variants.

Sequences and labels used below:
B1: TMEM59 peptide (residues 268–280), wild type [modified: long spacer (Tds) at the N-terminal end, used for immobilisation; long spacer (Tds) at the N-terminal end, used for immobilisation] [not stated] / GST-HA-ATG16L1(231–607) … (parent)
chain 1: PLPVEQDDDIEVIVDETSDHTEETSPVRAISRAATKRLSQPAGGLLDSITNIFGRRSVSSFPVPQDNVDTHPGSGKEVRVPATALCVFDAHDGEVNAVQFSPGSRLLATGGMDRRVKLWEVFGEKCEFKGSLSGSNAGITSIEFDSAGSYLLAASNDFASRIWTVDDYRLRHTLTGHSGKVLSAKFLLDNARIVSGSHDRTLKLWDLRSKVCIKTVFAGSSCNDIVCTEQCVMSGHFDKKIRFWDIRSESIVREMELLGKITALDLNPERTELLSCSRDDLLKVIDLRTNAIKQTFSAPGFKCGSDWTRVVFSPDGSYVAAGSAEGSLYIWSVLTGKVEKVLSKQHSSSINAVAWSPSGSHVVSVDKGCKAVLWAQY
chain 2: YVPSEKLSIYGDL

In this experiment the parent is B1. As to the kind of experiment: peptide microarray. The settings on record: with GST-HA-ATG16L1(231–607) [human], parent: 100.

Turning to chain 2 S8D, the percent of parent worked out at 7 % WT (ligand 200, 50, 20 nM) and 9 % WT (ligand 800, 600, 400 nM).
The like results for chain 2 S8H were, in that order, 124 % WT and 115 % WT.
As for chain 2 S8A, the percent of parent is, setting by setting: (ligand 200, 50, 20 nM) 55 % WT; (ligand 800, 600, 400 nM) 59 % WT.
The like results for chain 2 S8P were, in that order, 50 % WT and 78 % WT.
For chain 2 S8G, the percent of parent amounted to 56 % WT (ligand 200, 50, 20 nM) and 57 % WT (ligand 800, 600, 400 nM).
The like results for chain 2 S8Q were, in that order, 64 % WT and 113 % WT.
Take chain 2 S8T: the percent of parent runs as follows: (ligand 200, 50, 20 nM) 54 % WT; (ligand 800, 600, 400 nM) 67 % WT.
For chain 2 S8K the same measures were 158 % WT and 144 % WT.
With chain 2 S8V, the percent of parent (ligand 800, 600, 400 nM) was 60 % WT.
chain 2 S8N: the percent of parent (ligand 200, 50, 20 nM) is 126 % WT and the percent of parent (ligand 800, 600, 400 nM) amounted to 111 % WT.
The like results for chain 2 S8F were, in that order, 175 % WT and 144 % WT.
The like results for chain 2 S8M were, in that order, 21 % WT and 27 % WT.
For chain 2 S8R the same measures were 113 % WT and 115 % WT.
For the variant chain 2 S8W, the percent of parent (ligand 800, 600, 400 nM) was found to be 179 % WT.
Same read-out and setting: the figure for chain 2 L13G is 54 % WT; for chain 2 L13R it is 48 % WT.
Still for that read-out and setting: next, chain 2 L13W: 196 % WT; chain 2 L13N: 30 % WT; chain 2 L13A: 50 % WT.
The same measure, in the same setting: the figure for chain 2 L13V is 123 % WT; for chain 2 L13S it is 32 % WT.
With chain 2 L13H, the percent of parent (ligand 800, 600, 400 nM) was 66 % WT.
The same measure, in the same setting: next, chain 2 L13P: 94 % WT; chain 2 L13T: 5 % WT; chain 2 L13Y: 201 % WT.
As for chain 2 L13M, under “ligand 800, 600, 400 nM”, the percent of parent came out at 36 % WT.
Still for that read-out and setting: the figure for chain 2 L13I is 177 % WT; for chain 2 L13E it is 60 % WT; for chain 2 L13Q it is 37 % WT.
The same measure, in the same setting: the figure for chain 2 L13D is 27 % WT; for chain 2 L13F it is 173 % WT.
On the same count and under the same terms, next, chain 2 L13K: 21 % WT.
In the case of chain 2 P3I, the percent of parent came to 343 % WT (ligand 200, 50, 20 nM) and 172 % WT (ligand 800, 600, 400 nM).
For the variant chain 2 P3S, the percent of parent turned out to be 184 % WT (ligand 200, 50, 20 nM) and 138 % WT (ligand 800, 600, 400 nM).
The like results for chain 2 P3K were, in that order, 499 % WT and 181 % WT.
On to chain 2 P3N, for which the percent of parent was found to be 109 % WT (ligand 200, 50, 20 nM) and 110 % WT (ligand 800, 600, 400 nM).
The like results for chain 2 P3L were, in that order, 493 % WT and 189 % WT.
For chain 2 P3E the same measures were 89 % WT and 86 % WT.
The like results for chain 2 P3V were, in that order, 334 % WT and 176 % WT.
Take chain 2 P3T: the percent of parent by setting is: (ligand 200, 50, 20 nM) 518 % WT; (ligand 800, 600, 400 nM) 191 % WT.
For chain 2 P3R the same measures were 216 % WT and 131 % WT.
Consider chain 2 P3W, for which the percent of parent runs as follows: (ligand 200, 50, 20 nM) 483 % WT; (ligand 800, 600, 400 nM) 188 % WT.
For chain 2 P3Q the same measures were 254 % WT and 152 % WT.
For chain 2 P3A the same measures were 328 % WT and 168 % WT.
For chain 2 P3G the same measures were 143 % WT and 131 % WT.
Take chain 2 P3Y: the percent of parent runs as follows: (ligand 200, 50, 20 nM) 134 % WT; (ligand 800, 600, 400 nM) 104 % WT.
chain 2 P3D: the percent of parent is 104 % WT (ligand 200, 50, 20 nM) and 107 % WT (ligand 800, 600, 400 nM).
The like results for chain 2 P3F were, in that order, 472 % WT and 168 % WT.
The like results for chain 2 P3M were, in that order, 435 % WT and 184 % WT.
On to chain 2 P3H, for which the percent of parent is, setting by setting: (ligand 200, 50, 20 nM) 225 % WT; (ligand 800, 600, 400 nM) 145 % WT.
For chain 2 V2H, the percent of parent is, setting by setting: (ligand 200, 50, 20 nM) 55 % WT; (ligand 800, 600, 400 nM) 67 % WT.
For chain 2 V2P the same measures were 35 % WT and 41 % WT.
On to chain 2 V2G, for which the percent of parent (ligand 200, 50, 20 nM) came to 73 % WT and the percent of parent (ligand 800, 600, 400 nM) turned out to be 58 % WT.
The like results for chain 2 V2K were, in that order, 101 % WT and 96 % WT.
In the case of chain 2 V2M, the percent of parent worked out at 31 % WT (ligand 200, 50, 20 nM) and 28 % WT (ligand 800, 600, 400 nM).
For chain 2 V2E, the percent of parent turned out to be 9 % WT (ligand 200, 50, 20 nM) and 11 % WT (ligand 800, 600, 400 nM).
Regarding chain 2 V2S, the percent of parent was determined as 50 % WT (ligand 200, 50, 20 nM) and 56 % WT (ligand 800, 600, 400 nM).
For chain 2 V2D, the percent of parent came to 13 % WT (ligand 200, 50, 20 nM) and 18 % WT (ligand 800, 600, 400 nM).
For chain 2 V2Q the same measures were 12 % WT and 15 % WT.
For chain 2 V2I the same measures were 96 % WT and 99 % WT.
chain 2 V2A: the percent of parent by setting is: (ligand 200, 50, 20 nM) 47 % WT; (ligand 800, 600, 400 nM) 50 % WT.
The like results for chain 2 V2T were, in that order, 33 % WT and 31 % WT.
For chain 2 V2F the same measures were 250 % WT and 177 % WT.
For chain 2 V2Y the same measures were 80 % WT and 90 % WT.
For chain 2 V2W, the percent of parent runs as follows: (ligand 200, 50, 20 nM) 118 % WT; (ligand 800, 600, 400 nM) 119 % WT.
The like results for chain 2 V2N were, in that order, 19 % WT and 25 % WT.
The like results for chain 2 V2L were, in that order, 145 % WT and 134 % WT.
The like results for chain 2 V2R were, in that order, 41 % WT and 47 % WT.
Take chain 2 G11D: the percent of parent (ligand 800, 600, 400 nM) was 146 % WT.
The same measure, in the same setting: next, chain 2 G11W: 165 % WT; chain 2 G11A: 18 % WT.
Still for that read-out and setting: the figure for chain 2 G11V is 13 % WT; for chain 2 G11T it is 117 % WT.
Same read-out and setting: the figure for chain 2 G11H is 156 % WT; for chain 2 G11L it is 17 % WT.
In the case of chain 2 G11I, the percent of parent (ligand 800, 600, 400 nM) is 1 % WT.
The same measure, in the same setting: next, chain 2 G11N: 140 % WT; chain 2 G11Y: 150 % WT.
Turning to chain 2 G11R, the percent of parent (ligand 800, 600, 400 nM) worked out at 62 % WT.
Same read-out and setting: next, chain 2 G11Q: 31 % WT; chain 2 G11E: 129 % WT; chain 2 G11M: 40 % WT.
Regarding chain 2 G11P, the percent of parent (ligand 800, 600, 400 nM) amounted to 155 % WT.
The same measure, in the same setting: next, chain 2 G11K: 127 % WT; chain 2 G11S: 103 % WT; chain 2 G11F: 43 % WT.
On to chain 2 I9V, for which the percent of parent (ligand 800, 600, 400 nM) amounted to 109 % WT.
On the same count and under the same terms, the figure for chain 2 I9E is 96 % WT; for chain 2 I9M it is 66 % WT.
Same read-out and setting: the figure for chain 2 I9K is 149 % WT.
Regarding chain 2 I9R, the percent of parent (ligand 800, 600, 400 nM) was 93 % WT.
The same measure, in the same setting: next, chain 2 I9H: 145 % WT; chain 2 I9P: 89 % WT; chain 2 I9S: 61 % WT.
In the case of chain 2 I9W, the percent of parent (ligand 800, 600, 400 nM) worked out at 200 % WT.
Still for that read-out and setting: next, chain 2 I9G: 39 % WT; chain 2 I9N: 51 % WT; chain 2 I9F: 159 % WT.
The same measure, in the same setting: next, chain 2 I9T: 49 % WT.
The same measure, in the same setting: next, chain 2 I9L: 95 % WT; chain 2 I9Y: 198 % WT; chain 2 I9A: 76 % WT.
chain 2 I9Q: the percent of parent (ligand 800, 600, 400 nM) is 102 % WT.
On the same count and under the same terms, the figure for chain 2 I9D is 15 % WT.
On to chain 2 L7E, for which the percent of parent is 3 % WT (ligand 200, 50, 20 nM) and 7 % WT (ligand 800, 600, 400 nM).
For chain 2 L7W the same measures were 38 % WT and 112 % WT.
On to chain 2 L7F, for which the percent of parent by setting is: (ligand 200, 50, 20 nM) 102 % WT; (ligand 800, 600, 400 nM) 89 % WT.
As to chain 2 L7I, the percent of parent (ligand 200, 50, 20 nM) stood at 83 % WT and the percent of parent (ligand 800, 600, 400 nM) amounted to 95 % WT.
As for chain 2 L7H, the percent of parent by setting is: (ligand 200, 50, 20 nM) 66 % WT; (ligand 800, 600, 400 nM) 103 % WT.
For the variant chain 2 L7R, the percent of parent came out at 32 % WT (ligand 200, 50, 20 nM) and 59 % WT (ligand 800, 600, 400 nM).
The like results for chain 2 L7Q were, in that order, 11 % WT and 28 % WT.
The like results for chain 2 L7N were, in that order, 46 % WT and 75 % WT.
The like results for chain 2 L7K were, in that order, 22 % WT and 53 % WT.
As for chain 2 L7V, the percent of parent by setting is: (ligand 200, 50, 20 nM) 153 % WT; (ligand 800, 600, 400 nM) 142 % WT.
For chain 2 L7T the same measures were 38 % WT and 73 % WT.
Turning to chain 2 L7S, the percent of parent reads like this: (ligand 200, 50, 20 nM) 31 % WT; (ligand 800, 600, 400 nM) 58 % WT.
For chain 2 L7D the same measures were 11 % WT and 12 % WT.
The like results for chain 2 L7Y were, in that order, 69 % WT and 87 % WT.
For the variant chain 2 L7P, the percent of parent reads like this: (ligand 200, 50, 20 nM) 13 % WT; (ligand 800, 600, 400 nM) 11 % WT.
The like results for chain 2 L7G were, in that order, 54 % WT and 86 % WT.
The like results for chain 2 L7M were, in that order, 39 % WT and 52 % WT.
For chain 2 L7A the same measures were 98 % WT and 88 % WT.
